From patent US20240218057A1 (ROCKEFELLER UNIVERSITY, published 2024)

B1: C1055 (antibody, V domains shown)
VH: QVQLVESGGGVVQPGRSLRLSCAASGFTFSTYGMNWVRQAPGKGLEWVALILYDGSDKYYADSVKSRFTISRDNSRNTLYLQMTSLRAEDTAVYYCAKALSSTYYYDASGPDAFDIWGQGTMVTVSS
VL: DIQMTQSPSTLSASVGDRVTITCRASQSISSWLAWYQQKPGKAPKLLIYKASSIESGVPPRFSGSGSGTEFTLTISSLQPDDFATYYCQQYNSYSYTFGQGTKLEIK
B2: C1040 (antibody, V domains shown)
VH: QVQLVESGGGVVQPGRSLRLSCAASGFSFINYNMHWVRQAPGKGLEWVAVIWYDGSNKYYADSVKGRFTISRDNSKNTLYLQMNSLRVEDTAVYYCARDPAITEAEIDYWGQGTLVTVSS
VL: DVVMTQSPLSLPVTLGQAASISCRSSQSLVHSDGNTYLNWFQQRPGQSPRRLIYRVSNRDSGVPDRFSASGSGTDFTLKISRVEAEDVGVYYCMQGTHWPWTFGQGTKVEIK
B3: C1044 (antibody, V domains shown)
VH: QVQLQESGPGLVKPSQTLSLTCTVSGGSISSGNYYLTWIRQPAGKGLEWIGHIYTSGSTNYNPSLKSRVTISVDTSMNQFSLKLSSVTAADTAVYYCARDIPPTWYFDLWGRGTLVTVSS
VL: SYELTQPPSVSVAPGKTARITCGGNNIGSKNVHWYQQKPGQAPVLVVYDDSDRPSGIPERFSGSNSGNTATLTISRVEAGDEAGYYCQVWDSTSDHLFWVFGGGTKLTVL
B4: C1045 (antibody, V domains shown)
VH: QVQLQESGPGLVKPSQTLSLTCTVSGDSISSGNYYWSWIRQPAGKGLEWIGHIYTSGSPNYKPSLKSRVTISLDTSKNQFSLKLTSVTAADTAMYYCARDIPSTWYFDLWGRGTLVTVSS
VL: SYELTQPPSVSVAPGKTARIPCGGTDIGSKNVHWYQQKPGQAPVLAVYDDSDRPSGIPERFSGSNSGSTATLTISRVEAGDEADYYCQVWDSSGDRLSWVFGGGTKLTVL
B5: C1052 (antibody, V domains shown)
VH: QVQLVQSGAEVKKPGASVKVSCKVSGYTLSELSMHWVRQAPGEGLEWLGGFDPEDGETINAQKFQGRVTMTEDRSTDTAYMELSSLRSEDTAVYYCATRGRYCSSGNCYYHHWGQGTLVTVSS
VL: DIQMTQSPSTLSASVGDRVIITCRASQNIHNWLAWYQQKPGKAPKLLIYKASSLESGVPSRFSGSGSGTEFTLTISSLQPDDFATYFCQQYHSYSWTFGQGTKVEIK
B6: C1060 (antibody, V domains shown)
VH: EVQLVESGGDLVQPGGSLRLSCAASEIIVSRNYMNWVRQAPGKGLEWVSIIYSGGSTFYGDSVKGRFTISRDSSKNTLYLQMHGLRVEDTAIYYCARSYGDYYIDYWGQGTLVTVSS
VL: DIQMTQSPSSVSASVGDRVTITCRTSQSISTSLAWYQQKPGKAPKLLIYAASSLQRGVPSRFSGTGSGTDFTLTISSLQPEDFATYYCQQSSSSPPLFTFGPGTKVDIK
B7: C1058 (antibody, V domains shown)
VH: EVQLVESGGGLVQPGGSLRLSCAASGIIVSSNYMNWVRQVPGKGLEWVSVLYSGGSTFYADSVRGRFTISRDNSKNTLFLQMNSLRPEDTAVYYCARDFREGAFDIWGQGTMVTV
VL: DIQLTQSPSFLSASVGDRVTITCRASQGISSYLAWYQQKPGKAPNLLIYAASTLQSGVPSRFSGSGSGTDFTLTISSLQPEDFATYYCQQLNSYSPLFGQGTRLEIK
B8: C1059 (antibody, V domains shown)
VH: EVQLVESGGGLVQPGGSLRLSCAASGVTVSYNYMHWVRQAPGKGLEWVSVFFPGGSIFYADSVKGRFSISRDNSHNTLYLQMNNLRPEDTAVYYCARDFREGAIDLWGQGTMVTVSS
VL: DIQLTQSPSFLSASVEDRVTITCRASQGISSYLAWYQQKPGKAPKLLIYGASTLQSGVPSRFSGSGSGTEFTLTISSLQPEDSATYYCQQLNSYPPLFGQGTRLEIK
B9: C1043 (antibody, V domains shown)
VH: EVQLVESGGGLVQPGRSLRLSCAASGFIFDNYAMHWVRQAPGKGLEWVSGISWNSDSIGYADSVKGRFTISRDNAKNSLYLQMSSLRAEDTALYYCAKDLLGNYYYYTLDVWGQGTTVTVSS
VL: QSALTQPASVSGSPGQSITISCTGTSSDIGGNNYVSWYQQHPGKAPRLMIFDVSYRPSGVSNRFSGSKSGNTASLTISGLQAEDEADYYCISYTTSSTLGVFGGGTKLTVL
B10: C1057 (antibody, V domains shown)
VH: QVQLVQSGAEVKKPGSSVKVSCKASGGTFTTYIISWVRQAPGQGLEWMGGISPMLGTANYAQKFQGGVTITADESTTTAYMEMSGLRSEDTAVYYCARAHMYCSDGSCYRQSGYFDSWGQGTLVTVSS
VL: QSALTQPRSVSGSPGQSVTITCTGTSSNVGGYKYVSWFQQHPGKAPKFLIYDVSERSSGVPDRFSGSKSGNTASLTISGLQAEDEADYYCCSYAGKYTVVFGGGTRLTV
B11: C1050 (antibody, V domains shown)
VH: EVQLVESGGGLVQPGRSLRLSCAASGFTFDDYGMHWVRQAPGKGLEWVSGISWNGDSIGYADSVKGRFTISRDNAKTSLYLQMNRLRAEDTALYYCAKAASRSTRIGGAFDIWGQGTMVTVSS
VL: QSALTQPASVSGSPGQSITISCTGTSSDVGGYNLVSWYQQHPGKAPKLMIYEGSKRPSGVSNRFSGSKSGNTASLTISGLQAEDEADYYCCSYAYSFTNVFGTGTKVTV
B12: C1051 (antibody, V domains shown)
VH: EVQLVESGGGLVQPGRSLRLSCVASGFTFDDYGLHWVRQAPGKGLEWVSGISWNSDSIGYADSVKGRFAISRDNARTSLYLQMNRLRAEDTALYYCAKAASRSTRIGGAFDIWGQGTMVTVSS
VL: QSALTQPASVSGSPGQSITISCTGTSSDVGGYNLVSWYQQYPGKAPKLMIYEDSKRPSGVSHRFSGSKSGNTASLTISGLQAEDEADYYCCSYAFSFTNVFGTGTKVTV
B13: C1038 (antibody, V domains shown)
VH: QVQLVQSGAEVKKPGASVKVSCKASGYTFTSYYMHWVRQAPGQGLEWMGIINPSGGSTRYAQKFQGRVTMTRDTSTSTVYMELSSLRSEDTAVYYCAREGVGGTSYFDYWGQGTLVTVSS
VL: SYELTQPPSVSVAPGKTARITCGGNNIGSKSVHWYQQKPGQAPVLVVYDDSDRPSGIPERFSGSNSGNTATLTISRVEAGDEADYYCQVWDSSSDPYVFGTGTKVTVL
B14: C1039 (antibody, V domains shown)
VH: QVQLVQSGAEVKKPGASVKVSCKASGYTFTSHYMHWVRQAPGQGLEWMGIINPRTRYAQMFQGRVSMNRDTSTSTVYMELSSLTSEDTAVYYCAREGLGATAYFDYWGQGTLVTVSS
VL: SYELTQPPSVSVAPGKTAGITCGGSDIGSKSVHWYQQKPGQAPVLVVYDDSDRPSGIPERFSGSNSGNTATLTISRVEAGDEADYYCQVWDSSSDPYVFGTGTKVSVL
B15: C1048 (antibody, V domains shown)
VH: EVQLVQSGAEVKKPGESLKISCKVSGYSFISHWIGWVRQMPGKGLEWMGIIYPGDSDTRYSPSFQGQVTISADKSISTAYLQWSSLKASDTAMYYCARRGASWELDYWGQGTLVTV
VL: QSVLTQPPSASGTPGQRVTISCSGSSSNIGSNPVSWYQQLPGPAPQLLIYGNDQRPSGVPDRFSGSKSGTSASLAISGLQSEDEADYYCAAWDDSLNGYVFGTGTKVTVL
B16: C1046 (antibody, V domains shown)
VH: EVQLVQSGAEVKKPGESLKISCKGSGYSFTSYWIGWVRQMPGKGLEWMGIIYPGDSDTRYSPSFQGQVTISADKSISTAYLQWSSLKASDTAMYYCARMVTSGTYYYDNSGYSSSGPFDYWGQGTLVTVSS
VL: DIQLTQSPSSLSASVGDRVTITCRASQGISSALAWYQQKPGKAPKLLIYDASSLESGVPSRFSGSGSGTDFTLTISSLQPEDFATYYCQQFNNFGPGTKVDIK
B17: C1035 (antibody, V domains shown)
VH: EVQLVESGGGLIQPGGSLRLSCAASGLTVSRNYMNWVRQAPGKGLEWVSVMYSGGSTFYADSVKGRFTISRDNSKNTLYLQMNSLRAEDTAVYYCARESYGMDVWGQGTTVTVSS
VL: EIVLTQSPGTLSLSPGERATLSCRASQSFSSTYLAWYQQKPGQAPRLLIYGASSRATGIPDRFSGSGSGTDFTLTISRLEPEDFAVYYCQQYVTSPWTFGQGTKVEIK
B18: C1036 (antibody, V domains shown)
VH: EVQLVESGGGLIQPGGSLRLSCAASGLIVSRNYMNWVRQVPGKGLEWVSVMYAGGSTFYADSVKGRFTISRDDSKNTLYLQMNSLRPEDTAVYYCARESYGMDVWGQGTTVTVSS
VL: EIVLTQSPGTLSLSPGERATLSCRASQSISSTYLAWYQQKPGQAPRLLIYGASSRATGIPDRFSGSGSGTDFTLTISRLEPEDFAVYYCQQYVTSPWTFGQGTKVEIK
B19: C1053 (antibody, V domains shown)
VH: EVQLLESGGGLVQPGGSLRLSCAASGFTFSSYAMNWVRQAPGKGLEWVSAISGSGGGTYYADSVKGRFTISRDNSKNTLYLQMDSLRAEDTAVYYCAKDVPIEQQLVPTFDYWGQGALVTVSS
VL: DIQMTQSPSSLSASVGDRVTITCRASQSISRYLNWYQQKPGKAPKLLIYGASSLQSGVPSRFSGSGSGTDFTLTISSLQPEDFATYWCQQSYSTLSITFGQGTRLEIK
B20: C1054 (antibody, V domains shown)
VH: EVQLLESGGGLVQPGGSLRLSCVVSGFTFSSYAMNWVRQAPGKGLEWVSVIGGSGDGRYYADSVKGRFTISRDNSKNTLYLQMNSLRGDDTAVYYCARDVPVEQQLVPTFDYWGQGTLVTVSS
VL: DIQMTQSPSSLSASVGDRVTITCRASQSISRYLNWYQQKPGKAPKLLIYAASSLQSGVPSRFSGSGSGTEFTLTISSLQPEDFATYYCQQSYSTLSITFGQGTRLEIK
B21: C1061 (antibody, V domains shown)
VH: EVQLVESGGGLVQPGGSLRLSCAASGFTFSRYDMHWVRQGTGKGLEWVSAIGTSGDTYYPDSVKGRFTISRENAKNSLYLQMNSLRAGDTAVYYCARGGLQTTTWLFDYWGQGTLVTVSS
VL: DIQMTQSPSSLSASVGDRVTITCRASQSISRYLNWYQQKPGKAPKLLIYAASSLQSGVPSRFSGSGAGTDFTLTISSLQPEDFAIYYCQQSYSNPPITFGQGTRLEIK
B22: C1047 (antibody, V domains shown)
VH: EVQLVQSGAEVKKPGESLKISCKGSGYSFISYWIVWVRQMPGKGLEWIGIIYPGDSDTIYSPSFQGQVTLSADKSISTAYLQWSSLKASDTAIYYCAKMVTSGTSYYETRGYASSGPFDNWGQGTLVTVSS
VL: DIQLTQSPSSLSASVGDRVTITCRASQGISSALAWYQQKPGKAPKLLIYDASSLESGVPSRFSGSGSGTDFTLTISSLQPEDFATYYCQQSDNFGPGTKVDI
B23: C1049 (antibody, V domains shown)
VH: EVQLVQSGAEVKKPGESLKISCKSSGYSFISHWIGWVRQMPGKGLEWMGIIWPGDSDTRYSPSFQGQVTISVDKSITTVYLQWSSLKAADTAMYYCARRGSSWEVDYWGQGTLVTVSS
VL: not shown

These binders were tested against T1, SARS-COV-2 RBD (SARS-COV-2, UniProt P0DTC2 319-539) (assay: ELISA, RBD coated on plate).
T1 construct: also called WT RBD

Row | Binder | EC50 [ng/mL]
1 | B1 | 2.71
2 | B2 | 2.08
3 | B3 | 3.22
4 | B4 | 2.57
5 | B5 | 2.64
6 | B6 | 2.67
7 | B7 | 2.13
8 | B8 | 1.69
9 | B9 | 2.77
10 | B10 | 2.12
11 | B11 | 2.78
12 | B12 | 1.4
13 | B13 | 2.46
14 | B14 | 2.61
15 | B15 | 2.41
16 | B16 | 3.8
17 | B17 | 2.05
18 | B18 | 1.02
19 | B19 | 4.13
20 | B20 | 1.64
21 | B21 | 2.26
22 | B22 | 2.46
23 | B23 | 2.81
